Reference: the supplement of paper PMC10126150
± gives the standard deviation of the averaged measurements.

System: ATP
Test: switch fluorescence ratio, 500 uM ATP over buffer (Cy3 cluster intensity, sum of 5 cycles each) (fold (ratio)); higher = stronger signal-on switching upon ATP binding; sequences stand for … in TCGTCGGCAGCGTCAGATGTGTATAAGAGACAGTTTTTTTTTTTTTTTTTTTTTTTTT…TC
Details: aptamer strand: ATP DNA aptamer (quencher-CACCTGGGGGAGTATTGCGGAGGAAGG + anchor), 100 nM annealed; ATP concentration: 500 uM
In short: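 After annealing to 100 nM quencher-labelled ATP aptamer, Cy3-labelled switching-strand clusters on a modified Illumina MiSeq flow-cell were imaged in selection buffer. A second image followed after 15 min with 500 uM ATP at 22 °C, and five such buffer/ATP cycles were done, each separated by NaOH stripping and re-annealing. The fluorescence ratio, averaged per switch-domain sequence, is summed target-cycle over summed buffer-cycle Cy3 intensity per cluster, with clusters outside 100-1000 RFU excluded.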
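Further: ATP exposure 15 min at 22 °C before imaging.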

Sequence | switch fluorescence ratio
GGTATCTAGA | 1.02 ± 0.0067
ATGCAGACGA | 1.1 ± 0.013
ACAGGGGGGG | 1.07 ± 0.19
TGCATTATAC | 3.59 ± 0.19
GGAGGGACGG | 1.029 ± 0.009
AGATCGACGC | 1.19 ± 0.026
AGTGTCGTTT | 0.991 ± 0.02
TGGGGACTTG | 0.9782 ± 0.0015
AAATCGTTTT | 0.972 ± 0.047
TTCGGGGGCT | 1.01 ± 0.071
GCGGGGGGTG | 1.01 ± 0.03
TGTCCGTTTG | 1.01 ± 0.023
CAGATGGTGT | 1.02 ± 0.015
AAACGCCTGC | 1.08 ± 0.026
GGGGGGGGT | 1 ± 0.02
TTATGTCGAA | 0.98 ± 0.017
GTTCTGGGGG | 0.984 ± 0.024
CGGGTATGGG | 0.984 ± 0.03
TTTTAAGGTA | 0.996 ± 0.026
TTGTATTGGT | 1.04 ± 0.11
GTTTTTTTAT | 0.987 ± 0.02
CTGGCATGGT | 1 ± 0.011
CGGTGGGGTA | 1.01 ± 0.033

Sequence | switch fluorescence ratio
GAGGGAGGAG | 1 ± 0.029
ATACGGGAAG | 1.05 ± 0.031
GAAATCATCA | 0.96 ± 0.025
TTCAGGGCGC | 1.03 ± 0.053
TAGGTTGTGC | 0.976 ± 0.037
TAGGTCAGGG | 0.965 ± 0.027
AACTGGGGTG | 1.03 ± 0.03
TAGATATGCG | 1.03 ± 0.015
TAAAGCTGCT | 0.9705 ± 0.0071
CGAAGACCAG | 1.05 ± 0.081
TGAAAGCCGG | 0.965 ± 0.045
AGCTATTGGG | 0.975 ± 0.045
GGGTAGGTTT | 1.02 ± 0.059
GTTACCGTTT | 1.02 ± 0.053
CTATTGTGGA | 0.999 ± 0.019
ATTAGTGATA | 0.9756 ± 0.0025
TTTTAACCGA | 1.08 ± 0.034
TTACAGGACG | 1.2 ± 0.22
GTAACGTTAG | 0.998 ± 0.042
TATATATTTT | 1.01 ± 0.029
AAATAATGAT | 1 ± 0.021
TACTTACTCG | 1.241 ± 0.0038
TTGCTATATT | 1.01 ± 0.032

Sequence | switch fluorescence ratio
GAGAAAAACC | 1.02 ± 0.041
GAGAAATCTT | 1.01 ± 0.03
GGGCGAAGTC | 0.975 ± 0.03
TGTTAGTCTT | 0.969 ± 0.057
AAAATGCGCA | 1.02 ± 0.037
AAACGTACTT | 1.58 ± 0.086
ACATCATAGC | 1.048 ± 0.0076
AGGGCCCCGG | 1.03 ± 0.023
CGGTAGTTAC | 1.25 ± 0.059
GGGGATACTG | 1.31 ± 0.33
CTTTATGCGG | 0.99361 ± 0.00077
GCGGGCAATG | 1.052 ± 0.0089
GCGAGTTATG | 1.03 ± 0.031
CGTGCCGTGG | 0.995 ± 0.024
TAAAAGGGAC | 1.01 ± 0.028
ATCCTTTAAC | 1 ± 0.032
GGGGAAGGCC | 1.01 ± 0.018
GGTCCAGTGT | 1.06 ± 0.016
TAAGACATTT | 1.03 ± 0.04
TATACATGAG | 1.03 ± 0.021
GATCGAGAGG | 0.98 ± 0.025
CGTTTTCTGT | 0.978 ± 0.024
TGACGGTGTC | 1.02 ± 0.0035

Sequence | switch fluorescence ratio
GGGGGTGCGG | 0.977 ± 0.044
TTACACGGGG | 0.969 ± 0.036
ATTACTGCAT | 1.07 ± 0.059
GGGGCGTGCA | 1.03 ± 0.034
TCGGGTCGCC | 1 ± 0.044
TGTTACTCGT | 1.03 ± 0.0012
TTACGACTGT | 1.004 ± 0.0014
TGAACGGGCC | 1.036 ± 0.00055
CGGACGGGTT | 0.985 ± 0.019
TGGGAAAGTC | 0.993 ± 0.026
AAAGGCTTGG | 0.992 ± 0.015
TTACTTGACT | 1.116 ± 0.0085
TAAGTTAGTT | 0.979 ± 0.027
CTGCTCTGTG | 0.968 ± 0.014
GCATGTTGGG | 1.01 ± 0.029
CGGGGGTGA | 1.014 ± 0.0059
TTGAGAAAGG | 1.02 ± 0.025
TGATGTTGAC | 1 ± 0.013
GGTTTAAAGG | 0.996 ± 0.015
GGGATAAGGG | 1.01 ± 0.027
ATTTTAGGGT | 0.989 ± 0.022
GGGTAAAGAA | 1.01 ± 0.036
GCACGGACAT | 1.4 ± 0.031

Sequence | switch fluorescence ratio
TGGGGTTTTG | 0.979 ± 0.015
TCTTGGGGAG | 0.9815 ± 0.0083
AATGAAGTCG | 0.997 ± 0.064
CGGAGGGGGG | 1.03 ± 0.062
GGCGGTTAAG | 1.013 ± 7.9e-05
CAGAAAATGG | 1 ± 0.012
GGTGAGGGAC | 1.02 ± 0.011
GCTCGGGGGG | 0.987 ± 0.031
TTTAAGGTTG | 0.986 ± 0.023
CGGAATAGGG | 1.07 ± 0.052
ACGGGGGGCG | 0.984 ± 0.052
TCACTATTTT | 1.01 ± 0.02
CCATTAATCT | 1.34 ± 0.46
GGAGTCGTTG | 0.968 ± 0.011
CTGAGTATAG | 1.01 ± 0.023
CCAGTCAACG | 0.9802 ± 0.0085
AAAGGTGCCT | 1.05 ± 0.031
ATTGAGTGTG | 0.979 ± 0.022
AAGCTGGGGG | 0.969 ± 0.033
CAAGTTTTTG | 1.01 ± 0.033
TGTTTTAGGT | 1.02 ± 0.029
CGGGGGTGAG | 1.04 ± 0.13
AAGGAGGGGG | 1.02 ± 0.058

Sequence | switch fluorescence ratio
CTATAGGAGA | 1.01 ± 0.044
TTTAGTTACT | 1.06 ± 0.022
TTTTCCACGG | 1.21 ± 0.16
TATATATTTG | 1.03 ± 0.029
GCGTTTTGGG | 0.979 ± 0.041
TCGGGGGGGG | 1 ± 0.036
CGGGGGCATA | 1 ± 0.029
TCACATTATT | 1.04 ± 0.02
TACGGGGACT | 1.11 ± 0.028
GGTGGACAAC | 0.997 ± 0.013
TTATGGGGAT | 0.988 ± 0.019
TCGGTTGGTA | 1 ± 0.042
CGCCGACGGC | 1.01 ± 0.018
TATCTAAATA | 1.007 ± 0.007
TCGGGCTCGC | 0.9639 ± 0.0068
CGTTGGGTCT | 1 ± 0.018
TTTTTATGCG | 0.999 ± 0.06
TTTATAAAGA | 1.02 ± 0.059
AATTTAAGGT | 0.977 ± 0.022
CGGTCACTGT | 1.03 ± 0.038
GCCCGTTACG | 1.02 ± 0.055
TCATTCTTTA | 1.01 ± 0.019
CATAGCCTAA | 1.008 ± 0.0031

Sequence | switch fluorescence ratio
ATGCCAGGGT | 0.998 ± 0.031
ATAGAAAGGG | 1.02 ± 0.063
TTACAGGGCT | 1.037 ± 0.0038
TGTGGGGGCA | 0.9953 ± 0.0057
GGGTGTGAGT | 1.03 ± 0.018
ATAAAACATG | 0.9785 ± 0.0055
TCGTCCAAGT | 1.07 ± 0.066
GCTACGATGT | 1.01 ± 0.049
AATTTTAGAG | 0.973 ± 0.045
TACTGGGGCA | 0.9842 ± 0.0028
GCCAGGGGAG | 1.1 ± 0.12
TTGCGTATGA | 1.04 ± 0.063
CATGGTGTTA | 1.01 ± 0.025
ACAATAAAAG | 1.05 ± 0.044
ATATTTGCTT | 1 ± 0.025
CGTGTTGTGG | 0.97 ± 0.067
TTTTGTACGC | 1.097 ± 0.0065
AGCATAATTG | 1.01 ± 0.0076
TTGATGACGG | 0.9872 ± 0.0016
